B1: H2-Kb / B2 (parent)
chain 1: GEQVEQRPPHLSVREGDSAVIICTYTDPNSYYFFWYKQEPGAGLQLLMKVFSSTEINEGQGFTVLLNKKDKQLSLNLTAAHPGDSAVYFCAVSQMSNYNVLYFGSGTKLTVEP
chain 2: EAAVTQSPRNKVAVTGGKVTLSCNQTNNHNNMYWYRQDTGHGLRLIHYSYGAGSTEKGDIPDGYKASRPSQENFSLILELATPSQTSVYFCASGTGGSGQLYFGEGSKLTVL
chain 3: not shown
chain 4: IQKTPQIQVYSRHPPENGKPNILNCYVTQFHPPHIEIQMLKNGKKIPKVEMSDMSFSKDWSFYILAHTEFTPTETDTYACRVKHDSMAEPKTVYWDRDM
chain 5: SIINFEKL
B2: H2-Kb / B3 (parent)
chain 1: GQQVKQSSPSLTVQEGGISILNCDYENDMFDYFAWYKKYPDNSPTLLISVRSNVDKREDGRLTVFLNKSGKHFSLHITASQPEDTAVYLCAAGNTGYQNFYFGKGTSLTVIP
chain 2: DSGVVQSPRHIIKEKGGRSVLTCIPISGHSNVVWYQQTLGKELKFLIQHYEKVERDKGFLPSRFSVQQFDDYHSEMNMSALELEDSAMYFCASSSLQGARNQAPLFGEGTRLSVL
chain 3: not shown
chain 4: B1 chain 4
chain 5: SIINFEKL
B3: H2-Kb / B14 (parent)
chain 1: GEQVEQRPPHLSVREGDSAVIICTYTDPNSYYFFWYKQEPGAGLQLLMKVFSSTEINEGQGFTVLLNKKDKQLSLNLTAAHPGDSAVYFCAVSARGNMGYKLTFGTGTSLLVDP
chain 2: GGIITQTPKFLIGQEGQKLTLKCQQNFNHDTMYWYRQDSGKGLRLIYYSITENDLQKGDLSEGYDASREKKSSFSLTVTSAQKNEMAVFLCASSMGQGASDYTFGSGTRLLVI
chain 3: not shown
chain 4: B1 chain 4
chain 5: SIINFEKL

Variants of: B1
Experiment: % of reporter cells activated (NFAT-GFP), raw
Conditions: with B2; scale: % of reporter cells activated
Also: test concentration or dose not given here.

Ratio to parent of substitutions, site by site:
chain 5 F5: R 0.476; H 12.1; S 0.73; L 3.33; E 0.573; Q 1.75; Y 7.49; T 0.632
chain 5 L8: V 0.211; N 0.897; P 3.65; R 0.773; W 2.09; F 8.42
chain 5 E6: A 0.557; K 1.8; M 0.946; Y 0.697; C 0.811
chain 5 I3: A 0.741; F 0.324; V 0.449; W 0.578
chain 5 S1: D 2.9; Q 1.77; W 8.98; K 2.57; M 5.85
chain 5 K7: R 1.97; I 1.95; V 12.4; F 4.64; H 4.08; T 1.99; Q 1.96; A 4.46
chain 5 N4: H 0.584; Y 0.481; E 0.416; D 0.541; L 0.503; A 0.432; Q 0.259
chain 5 I2: G 0.876; C 1.2; W 0.768; H 0.93

Variants of: B2
Experiment: % of reporter cells activated (NFAT-GFP), raw
Conditions: with B3; scale: % of reporter cells activated

Ratio to parent: each site, then its substitutions
chain 5 E6: W 2.6; I 0.819; C 2.48; D 1.39; M 0.793; V 2.28; P 1.43; K 0.587; R 0.469; F 2.13; G 1.37; H 0.651; Y 1.97; Q 0.961; L 0.766; N 0.831; T 1.87; S 1.25; A 2.48
chain 5 L8: Q 0.258; S 0.287; H 0.547; V 0.793; N 0.885; I 0.902; R 0.837; E 0.448; D 0.434; K 0.331; C 0.526; A 0.21; G 0.264; W 0.462; F 0.341; P 0.463; Y 0.619; T 0.7; M 0.809
chain 5 K7: F 0.28; V 0.215; Q 0.201; E 0.175; D 0.0872; G 0.0497; W 0.634; S 0.219; H 0.553; C 0.201; P 0.263; L 0.488; N 0.601; Y 0.313; T 0.253; A 0.18; M 0.315; R 0.199; I 0.37
chain 5 N4: W 0.176; S 0.222; A 0.143; E 0.188; D 0.118; T 0.137; P 0.196; K 0.189; C 0.164; Y 0.0862; G 0.158; R 0.181; F 0.255; M 0.133; L 0.204; V 0.132; I 0.183; Q 0.0254; H 0.293
chain 5 I2: A 1.67; E 0.706; W 0.631; N 0.605; K 0.551; L 1.35; F 0.945; Q 0.228; T 2.16; R 0.777; S 1.73; P 0.386; C 1.29; M 0.465; Y 0.308; V 1.39; H 0.323; G 1.01; D 1.57
chain 5 I3: A 0.585; H 0.787; P 1.7; F 0.216; K 0.322; L 1.21; E 0.956; V 0.59; T 0.509; Q 0.614; M 1.73; G 0.273; N 0.35; C 0.787; S 1.32; R 0.0152; Y 0.153; D 0.144; W 0.28
chain 5 S1: C 0.181; A 0.221
chain 5 F5: H 0.428; G 0.197; T 0.842; M 0.771; D 0.272; V 0.38; A 0.437; W 0.399; Q 0.343; N 0.305; L 0.842; R 0.0406; E 0.207; K 0.121; C 0.411; S 0.263; Y 0.918; I 0.467; P 0.228

Variants of: B3
Experiment: % of reporter cells activated (NFAT-GFP), raw
Conditions: with B14; scale: % of reporter cells activated

Ratio to parent of substitutions, site by site:
chain 5 I3: Q 1.69; D 1.46; T 1.47; W 1.11; M 0.84; V 1.6; A 1.33; F 1; E 1.28; L 1.33; Y 1.28; H 1.78; S 1.6; R 0.858; P 2; C 1.96; K 1.34; G 1.38; N 0.978
chain 5 F5: Q 0.582; C 1.96; R 1.33; V 1.17; S 1.56; I 0.831; D 1.32; H 0.96; A 1.33; T 0.609; G 1.07; P 0.791; N 1.1; W 0.724; K 0.636; M 0.893; L 1.11; E 1.08; Y 0.578
chain 5 K7: E 0.622; Y 1.69; T 1.73; W 1.26; P 1.64; R 0.667; F 1.42; A 0.907; D 0.791; V 1.11; I 0.96; M 0.787; Q 1.23; G 0.489; C 4.53; H 0.796; N 0.707; S 1.09; L 1.56
chain 5 I2: Q 1.07; W 0.933; A 0.778; F 0.849; V 0.52; P 2.36; T 1.16; L 1.73; S 1.08; C 0.933; N 1; R 1.87; D 1.47; G 0.907; Y 0.88; E 0.964; M 1.4; K 1.04; H 0.667
chain 5 N4: I 0.484; W 1.01; L 0.822; A 1.32; H 0.911; C 0.916; S 1.1; T 1.64; K 1.37; P 1.38; D 1.23; Q 1.07; F 1.51; R 1.32; E 1.33; Y 0.658; V 1.42; G 0.644; M 0.498
chain 5 L8: Y 1.07; E 0.516; G 1.38; V 0; H 2.84; P 1.33; D 1.24; N 1.16; I 1.51; C 1.41; T 1.38; S 0.716; Q 1.24; K 1.24; F 0.44; W 1.11; A 0.609; M 0.773; R 0.978
chain 5 S1: P 0.751; H 1.24; Y 1.33; Q 0.858; R 2.04; C 1.42; W 1.04; N 0.231; F 3.07; L 1.13; I 0.76; K 0.564; V 8.49; T 1.42; G 0.596; E 0.867; A 0.942; D 1.38; M 0.444
chain 5 E6: K 0.707; H 0.853; I 0.729; C 1.16; W 1.2; F 1.47; L 0.622; G 1.08; N 1.07; R 0.373; T 1.41; Y 0.853; A 0.418; M 0.822; P 0.867; S 0.751; Q 0.876; D 0.618; V 1.69
